# Ends that are not written are not given here.
# T1: CRF2R
# T1 sequence (Q13324 whole entry, species assumed, looked up): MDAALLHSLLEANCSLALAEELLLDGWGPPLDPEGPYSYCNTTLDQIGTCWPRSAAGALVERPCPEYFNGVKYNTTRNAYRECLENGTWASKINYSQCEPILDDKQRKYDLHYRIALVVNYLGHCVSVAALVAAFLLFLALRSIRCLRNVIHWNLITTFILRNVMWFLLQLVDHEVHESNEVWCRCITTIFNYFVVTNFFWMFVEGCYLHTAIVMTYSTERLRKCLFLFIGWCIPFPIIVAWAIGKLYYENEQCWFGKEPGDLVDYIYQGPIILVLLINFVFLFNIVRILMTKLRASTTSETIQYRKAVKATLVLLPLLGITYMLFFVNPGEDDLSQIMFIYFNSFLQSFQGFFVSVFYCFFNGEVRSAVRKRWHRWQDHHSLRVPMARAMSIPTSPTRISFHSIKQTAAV
# Assays:
# [1] = biological target: T1, CRF2R; assay: cell-based or functional assay
# [2] = biological target: CRF1R; assay: cell-based or functional assay
# Wherever CRF1R Emax % is given: reference of the scale not given here.
# Wherever CRF2R Emax % is given: reference of the scale not given here.
Binder,CRF2R EC50 [1] [nM],CRF2R Emax % [1] [%],CRF1R EC50 [2] [nM],CRF1R Emax % [2] [%]
ZGPPISIDLPIFLLRKMIEIEKQEKEKQQAANNALLLATI (C-terminal amide) [SEQ ID NO 298],82,98.8,1000,20.1
ZGPPISIDLPQILLRKVIEIEKQEKEKQQAANNALLLATI (C-terminal amide) [SEQ ID NO 299],46.4,71.5,1000,10.2
IVLSLDVPIGLLQKVIEIEKQEKEKQQATTNARILARV-NH2 [SEQ ID NO 300],17.1,100,1000,7.95
ZGPPISIDLPTALLRKMIEIEKQEKEKQQAANNRLLLDTI (C-terminal amide) [SEQ ID NO 301],50.5,88.4,690,84.1
ZGPPISIDLPQALLRKMIEIEKQEKEKQQAANNRLLLDTI (C-terminal amide) [SEQ ID NO 302],36.2,100,366,100
ZGPPISIDLPAALLRKMIEIEKQEKEKQQAANNRLLLDTI (C-terminal amide) [SEQ ID NO 303],27.2,100,582,100
ZGPPISIDLPHALLRKMIEIEKQEKEKQQAANNRLLLDTI (C-terminal amide) [SEQ ID NO 304],19.3,92.5,116,100
ZGPPISIDLPVALLRKMIEIEKQEKEKQQAANNRLLLDTI (C-terminal amide) [SEQ ID NO 305],35.5,95.2,1000,59.5
ZGPPISIDLPIALLRKMIEIEKQEKEKQQAANNRLLLDTI (C-terminal amide) [SEQ ID NO 306],27.6,100,608,97.7
ZGPPISIDLPFALLRKMIEIEKQEKEKQQAANNRLLLDTI (C-terminal amide) [SEQ ID NO 307],5.82,96.5,78.4,92.7
ZGPPISIDLPLALLRKMIEIEKQEKEKQQAANNRLLLDTI (C-terminal amide) [SEQ ID NO 308],3.3,72.8,63.5,100
ZGPPISIDLPYALLRKMIEIEKQEKEKQQAANNRLLLDTI (C-terminal amide) [SEQ ID NO 309],5.55,99.9,108,96.3
ZGPPISIDLPYWLLRKMIEIEKQEKEKQQAANNALLLDTI (C-terminal amide) [SEQ ID NO 310],8.7,87.5,1000,45.3
ZGPPISIDLPYWLLRKVIEIEKQEKEKQQAANNALLLDTI (C-terminal amide) [SEQ ID NO 311],11.7,100,1000,29.7
ZGPPISIDLPYHLLRKVIEIEKQEKEKQQAANNALLLDTI (C-terminal amide) [SEQ ID NO 312],14.1,95,870,62
ZGPPISIDLPYHLLRKVIEIEKQEKEKQQAANNALLLATI (C-terminal amide) [SEQ ID NO 313],11.1,95,704,87.1
ZGPPISIDLPYHLLRKMIEIEKQEKEKQQAANNALLLDTI (C-terminal amide) [SEQ ID NO 314],10.3,99.8,978,82.4
ZGPPISIDLPYHLLRKMIEIEKQEKEKQQAANNALLLAT (C-terminal amide) [SEQ ID NO 315],9.35,81.7,454,100
ZGPPISIDLPFFLLRKVIEIEKQEKEKQQAANNALLLDTI (C-terminal amide) [SEQ ID NO 316],10.2,94.5,222,92.3
ZGPPISIDLPFFLLRKVIEIEKQEKEKQQAANNALLLATI (C-terminal amide) [SEQ ID NO 317],9.3,88.3,188,100
ZGPPISIDLPFFLLRKMIEIEKQEKEKQQAANNALLLDTI (C-terminal amide) [SEQ ID NO 318],9.95,95.4,134,92.8
ZGPPISIDLPFFLLRKMIEIEKQEKEKQQAANNALLLATI (C-terminal amide) [SEQ ID NO 319],8.5,95,106,88.3
ZGPPISIDLPLQLLRKVIEIEKQEKEKQQATTNARILARV (C-terminal amide) [SEQ ID NO 320],19.1,100,718,68.8
ZGPPISIDLPFQLLRKTIEIEKQEKEKQQATTNARLLDRV (C-terminal amide) [SEQ ID NO 321],19.6,86.8,1000,33.8
IVLSLDVPIGLLQKMIEIEKQEKEKQQATTNARILARV-NH2 [SEQ ID NO 322],23.1,96.5,1000,10.7
DNPSLSIDLPLLLLRTLLELEKTQSQRERAEQNAEIFAEV-NH2 [SEQ ID NO 323],19.6,100,1000,36.9
DNPSLSIDLPLLLLRTLLELEKTQSQRERAEQNAQIFAHV-NH2 [SEQ ID NO 324],17.2,100,1000,46.6
IVLSLDVPIGLLQILLEQEKARAAREQATTNARILARV-NH2 [SEQ ID NO 325],11.7,100,100,5

# Source: patent publication US20030148958A1 (PROCTER AND GAMBLE, published 2003)
